One molecule from article PMC5013389, “Competition between members of the tribbles pseudokinase protein family shapes their interactions with mitogen activated protein kinase pathways” (Scientific Reports, 2016) can be followed below.

In the assay the target is T1, MKK4-V1 (full length MKK4 fused to the V1 fragment of Venus YFP) (UniProt P45985 1-399).
T1 construct: source: HeLa, transfected, in live cells; not shown: Venus YFP fragment V1, C-terminal, kept
T1 sequence (looked up): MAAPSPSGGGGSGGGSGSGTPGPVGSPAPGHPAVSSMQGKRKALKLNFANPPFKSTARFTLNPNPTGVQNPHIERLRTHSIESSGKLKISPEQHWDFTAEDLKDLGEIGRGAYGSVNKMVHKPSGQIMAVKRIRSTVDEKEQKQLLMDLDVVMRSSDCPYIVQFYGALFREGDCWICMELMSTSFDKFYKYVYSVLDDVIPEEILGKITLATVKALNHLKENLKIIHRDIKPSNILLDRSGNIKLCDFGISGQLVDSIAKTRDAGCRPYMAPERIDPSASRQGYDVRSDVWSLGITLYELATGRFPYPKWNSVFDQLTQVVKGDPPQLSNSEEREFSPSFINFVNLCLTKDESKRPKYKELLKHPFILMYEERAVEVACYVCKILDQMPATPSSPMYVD
Kind of assay: split reporter (BiFC, NanoBiT); competitive PCA in HeLa cells: MKK-V1 and TRIB-V2 co-transfected with an increasing dose of an untagged competitor plasmid (ERK, p38 or TRIB); mean fluorescence by flow cytometry 24 h after transfection; doses are plasmid amounts relative to TRIB-V2. As to conditions: partners not purified. Background: A flow cytometer gives signals particle by particle.

B1: untagged TRIB-3 (natural protein, UniProt Q96RU7 1-358, looked up)
chain: MRATPLAAPAGSLSRKKRLELDDNLDTERPVQKRARSGPQPRLPPCLLPLSPPTAPDRATAVATASRLGPYVLLEPEEGGRAYQALHCPTGTEYTCKVYPVQEALAVLEPYARLPPHKHVARPTEVLAGTQLLYAFFTRTHGDMHSLVRSRHRIPEPEAAVLFRQMATALAHCHQHGLVLRDLKLCRFVFADRERKKLVLENLEDSCVLTGPDDSLWDKHACPAYVGPEILSSRASYSGKAADVWSLGVALFTMLAGHYPFQDSEPVLLFGKIRRGAYALPAGLSAPARCLVRCLLRREPAERLTATGILLHPWLRQDPMPLAPTRSHLWEAAQVVPDGLGLDEAREEEGDREVVLYG
notes: TRIB3, untagged expression plasmid; also called unlabelled tribbles; untagged tribbles; source: HeLa, transfected, in live cells
Consider B1, for which the “fold affinity to MKK4 relative to TRIB2” value was roughly 15 fold.
